In doi:10.1101/2024.03.12.584565 (bioRxiv, 2024):

T1: recombinant human Wapl (human, UniProt Q7Z5K2 1-1190)
T1 sequence: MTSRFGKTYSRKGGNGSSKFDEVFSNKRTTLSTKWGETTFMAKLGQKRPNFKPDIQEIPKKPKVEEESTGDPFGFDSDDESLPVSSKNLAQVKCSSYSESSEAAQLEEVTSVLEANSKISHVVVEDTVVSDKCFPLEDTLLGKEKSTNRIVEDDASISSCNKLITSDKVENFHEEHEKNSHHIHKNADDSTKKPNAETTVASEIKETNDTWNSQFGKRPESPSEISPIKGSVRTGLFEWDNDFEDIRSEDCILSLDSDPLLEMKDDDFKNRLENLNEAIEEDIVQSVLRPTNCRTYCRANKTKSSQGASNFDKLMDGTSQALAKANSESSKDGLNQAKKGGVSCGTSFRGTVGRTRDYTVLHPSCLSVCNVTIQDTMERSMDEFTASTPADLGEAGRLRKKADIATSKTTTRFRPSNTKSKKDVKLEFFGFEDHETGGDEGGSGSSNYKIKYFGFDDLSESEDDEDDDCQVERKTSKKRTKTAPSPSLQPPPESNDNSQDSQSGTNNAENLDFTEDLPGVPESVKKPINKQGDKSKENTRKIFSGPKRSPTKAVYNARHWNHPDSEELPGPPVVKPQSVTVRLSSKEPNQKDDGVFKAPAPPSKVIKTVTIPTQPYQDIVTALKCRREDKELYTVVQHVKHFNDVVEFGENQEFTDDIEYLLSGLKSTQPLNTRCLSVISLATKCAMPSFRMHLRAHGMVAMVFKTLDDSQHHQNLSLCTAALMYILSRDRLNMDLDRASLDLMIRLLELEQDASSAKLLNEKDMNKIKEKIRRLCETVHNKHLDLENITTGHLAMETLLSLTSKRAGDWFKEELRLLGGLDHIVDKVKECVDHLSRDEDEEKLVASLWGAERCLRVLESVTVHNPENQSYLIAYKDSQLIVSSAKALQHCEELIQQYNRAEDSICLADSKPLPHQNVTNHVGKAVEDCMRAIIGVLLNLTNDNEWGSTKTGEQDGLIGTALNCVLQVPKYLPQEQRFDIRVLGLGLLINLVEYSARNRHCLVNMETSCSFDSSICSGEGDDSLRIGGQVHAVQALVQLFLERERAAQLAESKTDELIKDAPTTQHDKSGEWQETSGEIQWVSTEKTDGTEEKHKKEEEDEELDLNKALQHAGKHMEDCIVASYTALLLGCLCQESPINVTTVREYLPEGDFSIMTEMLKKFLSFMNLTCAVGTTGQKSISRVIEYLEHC


Tests used:
His6-SUMO3-sororin = His6-SUMO3-sororin (human, UniProt Q96FF9 1-252); experiment: pull-down
recombinant human Wapl = biological target: T1, recombinant human Wapl; experiment: pull-down

Chain of His6-SUMO3-sororin (Q96FF9 whole entry): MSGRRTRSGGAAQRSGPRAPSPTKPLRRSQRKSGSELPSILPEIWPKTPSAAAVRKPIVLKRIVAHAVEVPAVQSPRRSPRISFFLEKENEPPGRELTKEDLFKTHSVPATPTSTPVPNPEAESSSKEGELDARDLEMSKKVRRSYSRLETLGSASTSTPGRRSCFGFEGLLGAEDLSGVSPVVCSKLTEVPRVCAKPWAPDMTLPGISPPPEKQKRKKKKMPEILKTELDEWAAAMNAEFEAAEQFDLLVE

Binder	binding result (His6-SUMO3-sororin)	binding result (recombinant human Wapl)
Flag-tagged Pds5b-Ser1177,1182,1209Ala (3A), untreated or exposed to Nek2a (natural protein) MAHSKTRTNDGKITYPPGVKEISDKISKEEMVRRLKMVVKTFMDMDQDSEEEKELYLNLALHLASDFFLKHPDKDVRLLVACCLADIFRIYAPEAPYTSPDKLKDIFMFITRQLKGLEDTKSPQFNRYFYLLENIAWVKSYNICFELEDSNEIFTQLYRTLFSVINNGHNQKVHMHMVDLMSSIICEGDTVSQELLDTVLVNLVPAHKNLNKQAYDLAKALLKRTAQAIEPYITNFFNQVLMLGKTSISDLSEHVFDLILELYNIDSHLLLSVLPQLEFKLKSNDNEERLQVVKLLAKMFGAKDSELASQNKPLWQCYLGRFNDIHVPIRLECVKFASHCLMNHPDLAKDLTEYLKVRSHDPEEAIRHDVIVSIVTAAKKDILLVNDHLLNFVRERTLDKRWRVRKEAMMGLAQIYKKYALQSAAGKDAAKQIAWIKDKLLHIYYQNSIDDRLLVERIFAQYMVPHNLETTERMKCLYYLYATLDLNAVKALNEMWKCQNLLRHQVKDLLDLIKQPKTDASVKAIFSKVMVITRNLPDPGKAQDFMKKFTQVLEDDEKIRKQLEVLVSPTCSCKQAEGCVREITKKLGNPKQPTNPFLEMIKFLLERIAPVHIDTESISALIKQVNKSIDGTADDEDEGVPTDQAIRAGLELLKVLSFTHPISFHSAETFESLLACLKMDDEKVAEAALQIFKNTGSKIEEDFPHIRSALLPVLHHKSKKGPPRQAKYAIHCIHAIFSSKETQFAQIFEPLHKSLDPSNLEHLITPLVTIGHIALLAPDQFAAPLKSLVATFIVKDLLMNDRLPGKKTTKLWVPDEEVSPETMVKIQAIKMMVRWLLGMKNNHSKSGTSTLRLLTTILHSDGDLTEQGKISKPDMSRLRLAAGSAIVKLAQEPCYHEIITLEQYQLCALAINDECYQVRQVFAQKLHKGLSRLRLPLEYMAICALCAKDPVKERRAHARQCLVKNINVRREYLKQHAAVSEKLLSLLPEYVVPYTIHLLAHDPDYVKVQDIEQLKDVKECLWFVLEILMAKNENNSHAFIRKMVENIKQTKDAQGPDDAKMNEKLYTVCDVAMNIIMSKSTTYSLESPKDPVLPARFFTQPDKNFSNTKNYLPPEMKSFFTPGKPKTTNVLGAVNKPLSSAGKQSQTKSSRMETVSNASSSSNPSSPGRIKGRLDSAEMDHAENEDYTMSSPLPGKKSDKRDDSDLVRAELEKPRGRKKTPVTEQEEKLGMDDLTKLVQEQKPKGSQRSRKRGHTASESDEQQWPEEKRLKEDILENEDEQNSPPKKGKRGRPPKPLGGGTPKEEPTMKTSKKGSKKKSGPPAPEEEEEEERQSGNTEQKSKSKQHRVSRRAQQRAESPESSAIESTQSTPQKGRGRPSKTPSPSQPKKNVRVGRSKQAATKENDSSEEVDVFQGSSPVDDIPQEETEEEEVSTVNVRRRSAKRERR	binds	–
Flag-tagged Pds5b-Ser1161,1166,1177,1182,1209Ala (5A), untreated or exposed to Nek2a and Cdk1/2-cyclin A2 (natural protein) MAHSKTRTNDGKITYPPGVKEISDKISKEEMVRRLKMVVKTFMDMDQDSEEEKELYLNLALHLASDFFLKHPDKDVRLLVACCLADIFRIYAPEAPYTSPDKLKDIFMFITRQLKGLEDTKSPQFNRYFYLLENIAWVKSYNICFELEDSNEIFTQLYRTLFSVINNGHNQKVHMHMVDLMSSIICEGDTVSQELLDTVLVNLVPAHKNLNKQAYDLAKALLKRTAQAIEPYITNFFNQVLMLGKTSISDLSEHVFDLILELYNIDSHLLLSVLPQLEFKLKSNDNEERLQVVKLLAKMFGAKDSELASQNKPLWQCYLGRFNDIHVPIRLECVKFASHCLMNHPDLAKDLTEYLKVRSHDPEEAIRHDVIVSIVTAAKKDILLVNDHLLNFVRERTLDKRWRVRKEAMMGLAQIYKKYALQSAAGKDAAKQIAWIKDKLLHIYYQNSIDDRLLVERIFAQYMVPHNLETTERMKCLYYLYATLDLNAVKALNEMWKCQNLLRHQVKDLLDLIKQPKTDASVKAIFSKVMVITRNLPDPGKAQDFMKKFTQVLEDDEKIRKQLEVLVSPTCSCKQAEGCVREITKKLGNPKQPTNPFLEMIKFLLERIAPVHIDTESISALIKQVNKSIDGTADDEDEGVPTDQAIRAGLELLKVLSFTHPISFHSAETFESLLACLKMDDEKVAEAALQIFKNTGSKIEEDFPHIRSALLPVLHHKSKKGPPRQAKYAIHCIHAIFSSKETQFAQIFEPLHKSLDPSNLEHLITPLVTIGHIALLAPDQFAAPLKSLVATFIVKDLLMNDRLPGKKTTKLWVPDEEVSPETMVKIQAIKMMVRWLLGMKNNHSKSGTSTLRLLTTILHSDGDLTEQGKISKPDMSRLRLAAGSAIVKLAQEPCYHEIITLEQYQLCALAINDECYQVRQVFAQKLHKGLSRLRLPLEYMAICALCAKDPVKERRAHARQCLVKNINVRREYLKQHAAVSEKLLSLLPEYVVPYTIHLLAHDPDYVKVQDIEQLKDVKECLWFVLEILMAKNENNSHAFIRKMVENIKQTKDAQGPDDAKMNEKLYTVCDVAMNIIMSKSTTYSLESPKDPVLPARFFTQPDKNFSNTKNYLPPEMKSFFTPGKPKTTNVLGAVNKPLSSAGKQSQTKSSRMETVSNASSASNPSAPGRIKGRLDSAEMDHAENEDYTMSSPLPGKKSDKRDDSDLVRAELEKPRGRKKTPVTEQEEKLGMDDLTKLVQEQKPKGSQRSRKRGHTASESDEQQWPEEKRLKEDILENEDEQNSPPKKGKRGRPPKPLGGGTPKEEPTMKTSKKGSKKKSGPPAPEEEEEEERQSGNTEQKSKSKQHRVSRRAQQRAESPESSAIESTQSTPQKGRGRPSKTPSPSQPKKNVRVGRSKQAATKENDSSEEVDVFQGSSPVDDIPQEETEEEEVSTVNVRRRSAKRERR	binds	–
Flag-tagged Pds5b-Ser1177,1182,1209Ala (3A), phosphorylated by Cdk1/2-cyclin A2 in vitro (natural protein) MAHSKTRTNDGKITYPPGVKEISDKISKEEMVRRLKMVVKTFMDMDQDSEEEKELYLNLALHLASDFFLKHPDKDVRLLVACCLADIFRIYAPEAPYTSPDKLKDIFMFITRQLKGLEDTKSPQFNRYFYLLENIAWVKSYNICFELEDSNEIFTQLYRTLFSVINNGHNQKVHMHMVDLMSSIICEGDTVSQELLDTVLVNLVPAHKNLNKQAYDLAKALLKRTAQAIEPYITNFFNQVLMLGKTSISDLSEHVFDLILELYNIDSHLLLSVLPQLEFKLKSNDNEERLQVVKLLAKMFGAKDSELASQNKPLWQCYLGRFNDIHVPIRLECVKFASHCLMNHPDLAKDLTEYLKVRSHDPEEAIRHDVIVSIVTAAKKDILLVNDHLLNFVRERTLDKRWRVRKEAMMGLAQIYKKYALQSAAGKDAAKQIAWIKDKLLHIYYQNSIDDRLLVERIFAQYMVPHNLETTERMKCLYYLYATLDLNAVKALNEMWKCQNLLRHQVKDLLDLIKQPKTDASVKAIFSKVMVITRNLPDPGKAQDFMKKFTQVLEDDEKIRKQLEVLVSPTCSCKQAEGCVREITKKLGNPKQPTNPFLEMIKFLLERIAPVHIDTESISALIKQVNKSIDGTADDEDEGVPTDQAIRAGLELLKVLSFTHPISFHSAETFESLLACLKMDDEKVAEAALQIFKNTGSKIEEDFPHIRSALLPVLHHKSKKGPPRQAKYAIHCIHAIFSSKETQFAQIFEPLHKSLDPSNLEHLITPLVTIGHIALLAPDQFAAPLKSLVATFIVKDLLMNDRLPGKKTTKLWVPDEEVSPETMVKIQAIKMMVRWLLGMKNNHSKSGTSTLRLLTTILHSDGDLTEQGKISKPDMSRLRLAAGSAIVKLAQEPCYHEIITLEQYQLCALAINDECYQVRQVFAQKLHKGLSRLRLPLEYMAICALCAKDPVKERRAHARQCLVKNINVRREYLKQHAAVSEKLLSLLPEYVVPYTIHLLAHDPDYVKVQDIEQLKDVKECLWFVLEILMAKNENNSHAFIRKMVENIKQTKDAQGPDDAKMNEKLYTVCDVAMNIIMSKSTTYSLESPKDPVLPARFFTQPDKNFSNTKNYLPPEMKSFFTPGKPKTTNVLGAVNKPLSSAGKQSQTKSSRMETVSNASSSSNPSSPGRIKGRLDSAEMDHAENEDYTMSSPLPGKKSDKRDDSDLVRAELEKPRGRKKTPVTEQEEKLGMDDLTKLVQEQKPKGSQRSRKRGHTASESDEQQWPEEKRLKEDILENEDEQNSPPKKGKRGRPPKPLGGGTPKEEPTMKTSKKGSKKKSGPPAPEEEEEEERQSGNTEQKSKSKQHRVSRRAQQRAESPESSAIESTQSTPQKGRGRPSKTPSPSQPKKNVRVGRSKQAATKENDSSEEVDVFQGSSPVDDIPQEETEEEEVSTVNVRRRSAKRERR	–	binds
